{"source": "patent US20260062447A1", "about": "“COMPOUNDS” (UNIVERSITY OF SOUTHAMPTON, priority 2022, published 2026)", "key": {"HIF-1α PAS-B domain [1]": {"molecular_target": "HIF-1α PAS-B domain (UniProt Q16665)", "sequence (Q16665 238-349 limits assumed)": "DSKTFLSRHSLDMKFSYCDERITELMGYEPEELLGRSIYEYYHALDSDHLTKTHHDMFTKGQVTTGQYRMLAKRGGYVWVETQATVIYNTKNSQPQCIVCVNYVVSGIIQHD", "assay": "MST"}, "His-HIF-1α PAS-B domain": {"molecular_target": "His-HIF-1α PAS-B domain (UniProt Q16665)", "sequence (Q16665 238-349 limits assumed)": "as above", "assay": "competition ELISA: inhibition of FLAG-HIF-1β PAS-B binding to plate-bound His-HIF-1α PAS-B"}, "HIF-1α PAS-B domain [2]": {"molecular_target": "HIF-1α PAS-B domain (UniProt Q16665)", "assay": "MST (microscale thermophoresis), labelled HIF-1α PAS-B [part 3 of 4]"}, "HIF-1α PAS-B domain [3]": {"molecular_target": "HIF-1α PAS-B domain (UniProt Q16665)", "assay": "MST (microscale thermophoresis), labelled HIF-1α PAS-B [part 2 of 4]"}, "HIF-1α PAS-B domain [4]": {"molecular_target": "HIF-1α PAS-B domain (UniProt Q16665)", "assay": "MST (microscale thermophoresis), labelled HIF-1α PAS-B [part 4 of 4]"}, "HIF-1α PAS-B domain [5]": {"molecular_target": "HIF-1α PAS-B domain (UniProt Q16665)", "assay": "MST (microscale thermophoresis), labelled HIF-1α PAS-B [part 3 of 14) B]"}, "HIF-1α PAS-B domain [6]": {"molecular_target": "HIF-1α PAS-B domain (UniProt Q16665)", "assay": "MST (microscale thermophoresis), labelled HIF-1α PAS-B [part 1 of 4) B]"}}}
{"substance": "cyclo-CK-NL-F(CF3)IF(Br) (Cys lys n-leu phe(CF3) ile phe(4-Br)) (peptide)", "values": [{"measurement": "Kd", "setting": "HIF-1α PAS-B domain [1]", "result": 1660, "unit": "nM"}, {"measurement": "IC50", "setting": "His-HIF-1α PAS-B domain", "result": 27700, "unit": "nM"}]}
{"substance": "Cyclo-CL-hL-F(CF3)IF(Br) (peptide)", "values": [{"measurement": "EC50 (read off the curve)", "setting": "HIF-1α PAS-B domain [2]", "result": 700, "unit": "nM"}]}
{"substance": "Cyclo-CLLF(CF3)-Prop-F(Br) (peptide)", "values": [{"measurement": "Kd", "setting": "HIF-1α PAS-B domain [3]", "result": 1160, "unit": "nM"}]}
{"substance": "Cyclo-CL-NL-F(CF3)IF(Br) (Cys leu n-leu phe(CF3) ile phe(4-Br)) (peptide)", "values": [{"measurement": "EC50 (read off the curve)", "setting": "HIF-1α PAS-B domain [4]", "result": 500, "unit": "nM"}]}
{"substance": "Cyclo-CLLF(CF3)-hL-F(Br) (Cys leu leu phe(CF3) h-leu phe(4-Br)) (peptide)", "values": [{"measurement": "Kd", "setting": "HIF-1α PAS-B domain [4]", "result": 735, "unit": "nM"}]}
{"substance": "Cyclo-CL-Prop-F(CF3)IF(Br) (peptide)", "values": [{"measurement": "EC50 (read off the curve)", "setting": "HIF-1α PAS-B domain [2]", "result": 1000, "unit": "nM"}]}
{"substance": "Cyclo-CLLF(CF3)-NL-F(Br) (peptide)", "values": [{"measurement": "Kd", "setting": "HIF-1α PAS-B domain [4]", "result": 1030, "unit": "nM"}]}
{"substance": "Cyclo-CL-NV-F(CF3)IF(Br) (peptide)", "values": [{"measurement": "EC50 (read off the curve)", "setting": "HIF-1α PAS-B domain [3]", "result": 600, "unit": "nM"}]}
{"substance": "Cyclo-CLLF(CF3)-NV-F(Br) (peptide)", "values": [{"measurement": "Kd", "setting": "HIF-1α PAS-B domain [3]", "result": 22400, "unit": "nM"}]}
{"substance": "Cyclo-CLLY(Me)VY (peptide)", "values": [{"measurement": "Kd", "setting": "HIF-1α PAS-B domain [5]", "result": "> 200000", "unit": "nM"}]}
{"substance": "Cyclo-CLLF(CF3)-Aib-F(Br) (peptide)", "values": [{"measurement": "Kd", "setting": "HIF-1α PAS-B domain [2]", "result": 1920, "unit": "nM"}]}
{"substance": "Cyclo-CL-Aib-F(CF3)IF(Br) (peptide)", "values": [{"measurement": "EC50 (read off the curve)", "setting": "HIF-1α PAS-B domain [6]", "result": 2000, "unit": "nM"}]}
